The target in this experiment is VLDL receptor (VLDLR) on U937 clone 10 cells (UniProt P98155). Briefly: cell-based or functional assay.

Turning to “low endotoxin recombinant RAP (LDL Receptor-Associated Protein) (from UniProt P30533 35-357)”, the HIV-1 infectivity of U937 clone 10 cells preconditioned with RAP for 15 min, then with α1PI, and cultured for 8 days was determined as 93%.

The record behind these values is patent US20180092964A1.
